To fix the notation:
B1: CTLA4 heavy chain single domain antibody No. 145 (VHH)
VHH: QVQLQESGGGSVQAGGSLRLSCAASGYTYSSYSMGWFRQAAGKEREGVAAIDSDGSTSYADSVKGRFTISQDNAKNTLYLQMNSLEPEDTAMYYCAATAGWYAARHALSPLFFGYWGQGTQVTVSS
notes: Camel VHH expressed in E. coli (PET32b), nickel-purified
B2: CTLA4 heavy chain single domain antibody No. C27 (VHH)
VHH: QVQLQESGGGSVQAGGSLRLSCAASGYIYSAYCMGWFRQAPGKERVGVAAISIGGGSTYYADSVKGRFTISQDNAKNTLYLQMNSLKPEDTAMYYCAADVIPTETCLGGSWSGPFGYWGQGTQVTVSS
notes: as for B1
B3: CTLA4 heavy chain single domain antibody No. C1 (VHH)
VHH: B2 VHH with R19G, V46E, S52Y, I53L, N74I, Y95S
notes: Camel VHH expressed in E. coli (PET32b), nickel-purified, detected by anti-His tag antibody
B4: CTLA4 heavy chain single domain antibody No. 155 (VHH)
VHH: QVQLQESGGGPVQAGGSLRLSCAVSKYPYSGSCMGWFRQAPGKEREGVAAMFTGTGSTYYADSVKGRFTISQNVAKNTLDLQMNSLKPEDTAMYYCAVDLLPRSTRCLDYGLRTYNYWGQGTQVTVSS
notes: as for B1

Residue numbers refer to the chain shown, from its start.

The target in one test is T1, CTLA4-Fc fusion protein (human, biotinylated where used as CTLA4-Fc-Biotin (Examples 5.1-5.3)).
T1 construct: expressed in HEK293 cells; also called human CTLA4-Fc protein; CTLA4-Fc antigen protein
The test is described as follows: competitive ELISA: CD80-Fc-Biotin signal on coated CTLA4-Fc with 500 ng VHH/well; competitor CD80-Fc-Biotin. The procedure: (§1) SA-HRP (purchased from Sigma) was added and allowed to react for 1 hour at room temperature. After adding chromogenic solution, absorbance was read at 405 nm wavelength.
For the molecule B1, the OD came to 0.597 OD405.

B2 returned an OD of 0.04 OD405.

B3 came in with an OD of 0.054 OD405.

The molecule B4 had an OD of 0.746 OD405.

In the next test the target is T1, CTLA4-Fc fusion protein. The test is described as follows: ELISA, VHH coated 0.5 µg/well, dilution series of CTLA4-Fc, anti-human IgG-Fc HRP; antibody No. C1. The procedure:
(§2) The plates were coated with the obtained CTLA4 heavy chain single-domain antibody at 0.5 μg/well overnight at 4° C. followed by addition of a gradient dilution series of CTLA4-Fc fusion protein and allowed to react for 1 hour at room temperature. After washing, goat anti-human IgG-Fc horseradish peroxidase labeled antibody (lakepharma) was added and allowed to react for 1 hour at room temperature. After washing, horseradish peroxidase c chromogenic solution was added and the absorbance was read at a wavelength of 405 nm.
(In an ELISA, binding on a coated surface is turned into a signal by an enzyme label.)
One may read the EC50 as the concentration needed to bring the measured effect to its halfway point. A high value points to lower potency in that assay. In turn, B3 displayed an EC50 of about 0.123 µg/mL.

Another test concerns the target T1, CTLA4-Fc fusion protein. The test is described as follows: competitive ELISA, CTLA4-Fc coated, VHH series with 250 ng/mL CD80-Fc-Biotin. The procedure:
as §1
For orientation: IC50 means the concentration at which inhibition is half-maximal. A high value points to lower potency. The molecule B1 gave an IC50 of about 1.95 µg/mL.

Regarding B2, the concentration for half-maximal inhibition (IC50) was about 0.731 µg/mL.

Molecule B3 had a half-maximal inhibitory concentration (IC50) of 0.852 µg/mL.

In the case of B4, the IC50 is about 4.69 µg/mL.

The target in the next test is T1, CTLA4-Fc fusion protein. The test is described as follows: ELISA, VHH coated 0.5 µg/well, dilution series of CTLA4-Fc, anti-human IgG-Fc HRP; antibody No. C27. The procedure:
as §2
B2 displayed an EC50 of about 0.093 µg/mL.

A further test addresses T2, Mouse CTLA4-Fc protein (mouse, biotinylated (mCTLA4-Fc-Biotin)).
T2 construct: also called mCTLA4-Fc-Biotin; mouse CTLA4-Fc fusion protein
The test is described as follows: ELISA, VHH coated 0.5 µg/well, mouse CTLA4-Fc (biotinylated), SA-HRP; blank 0.027. The procedure:
(§3) Thereafter, SA-HRP (purchased from Sigma) was added, and the mixture was reacted at room temperature for 1.5 hours. After washing, chromogenic agent was added and the absorbance was read at 405 nm.
For the molecule B1, the “OD (against mouse CTLA4)” value stood at 0.026 OD405.

As for B2, the “OD (against mouse CTLA4)” value was 0.021 OD405.

On to B3, for which the “OD (against mouse CTLA4)” value turned out to be 0.042 OD405.

Take B4: the “OD (against mouse CTLA4)” value is 0.032 OD405.

The target of the next test is T1, CTLA4-Fc fusion protein. The test is described as follows: ELISA OD ratio, value equals OD(CTLA4)/OD(blank). As for the experimental part:
(§4) Plates were coated with CTLA4-Fc fusion protein overnight at 4° C. and 10 ng of the heavy chain single-domain antibody obtained in Example 2.1 (the control was a single domain antibody not binding to the CTLA4-Fc protein) was added to each well and allowed to react for 1 hour at room temperature. After washing, primary antibody anti-His tag antibody (purchased from Beijing Kangwei Century Biotechnology Co., Ltd.) was added and reacted for 1 hour at room temperature. After washing, a secondary goat anti-mouse horseradish peroxidase-labeled antibody (Yiqiao Shenzhou, Cat: SSA007200) was added and reacted for 1 hour at room temperature. After washing, chromogenic agent was added and the absorbance was read at 405 nm.
Regarding B1, the ODa/ODb was found to be 53.1.

For the molecule B2, the ODa/ODb came out at 46.8.

In the case of B3, the ODa/ODb came out at 42.9.

As for B4, the ODa/ODb was found to be 61.6.

A further test addresses T1, CTLA4-Fc fusion protein. The test is described as follows: ELISA, VHH coated 0.5 µg/well, dilution series of CTLA4-Fc, anti-human IgG-Fc HRP; antibody No. 145 (printed as No. 14). As for the experimental part: as §2
For the molecule B1, the EC50 was about 0.05 µg/mL.

For a further test, the target named is T1, CTLA4-Fc fusion protein. The test is described as follows: ELISA, VHH coated 0.5 µg/well, dilution series of CTLA4-Fc, anti-human IgG-Fc HRP; antibody No. 155. As for the experimental part: as §2
As to B4, the EC50 was about 0.013 µg/mL.

Another test has as its target T2, Mouse CTLA4-Fc protein. The test is described as follows: ELISA, VHH coated 0.5 µg/well, mCTLA4-Fc-Biotin, SA-HRP. The procedure:
as §3
B1: the binding result is listed as “no binding”.

For the molecule B2, the binding result is “no binding”.

On to B3, for which the binding result is recorded as “no binding”.

As to B4, the binding result is on record as “no binding”.

A further test has as its target T3, Fc protein.
T3 construct: Counter-screen for the Fc part of CTLA4-Fc
The test is described as follows: ELISA, Fc protein coated, 10 ng VHH/well. The procedure:
(§5) Plates were coated with Fc protein overnight at 4° C. and 10 ng of the heavy chain single domain antibody obtained in Example 2.1 was added to each well (control was a single domain antibody against other unrelated targets) and allowed to react for 1 hour at room temperature. After washing, an rabbit anti-human Fc antibody (purchased from Shanghai Pu Xin Biotechnology Co., Ltd.) was added and reacted for 1 hour at room temperature. After washing, goat anti-rabbit horseradish peroxidase labeled antibody (purchased from Shanghai Pu Xin Biotechnology Co., Ltd.) was added and reacted at room temperature for 1 hour. After washing, chromogenic agent was added and the absorbance was read at 405 nm.
Consider B1, for which the “OD (against Fc)” value was 0.065 OD405.

Turning to B2, the “OD (against Fc)” value amounted to 0.049 OD405.

For the molecule B3, the “OD (against Fc)” value came out at 0.053 OD405.

For the molecule B4, the “OD (against Fc)” value came out at 0.051 OD405.

A further test concerns the target T1, CTLA4-Fc fusion protein. The test is described as follows: ELISA, CTLA4-Fc coated, 10 ng VHH/well. As for the experimental part: as §4
In the case of B1, the “OD (against CTLA4)” value worked out at 1.49 OD405.

As to B2, the “OD (against CTLA4)” value stood at 1.31 OD405.

With B3, the “OD (against CTLA4)” value was determined as 1.2 OD405.

Take B4: the “OD (against CTLA4)” value came out at 1.72 OD405.

In the next test the target is T1, CTLA4-Fc fusion protein. The test is described as follows: ELISA OD ratio, value equals OD(CTLA4)/OD(Fc). The procedure:
as §4, §5
For the molecule B1, the ODa/OD blank is 22.9.

With B2, the ODa/OD blank was found to be 26.7.

B3: the ODa/OD blank worked out at 22.7.

On to B4, for which the ODa/OD blank is 33.8.
